Reference: the supplement of paper PMC10065799, “High-throughput profiling of sequence recognition by tyrosine kinases and SH2 domains using bacterial peptide display” (eLife, 2023)

Legend:
AncSZ = experiment: phosphorylation enrichment, bacterial display (enrichment ratio); higher = better substrate or ligand; peptides without Tyr show the background
EPHB1 = EPHB1 (UniProt P54762); experiment: as above
EPHB2 = EPHB2 (UniProt P29323); experiment: as above
FGFR1 = FGFR1 (UniProt P11362); experiment: as above
FGFR3 = FGFR3 (UniProt P22607); experiment: as above
Fer (mouse) = experiment: as above
Fes = Fes (UniProt P07332); experiment: as above
Fyn = Fyn (UniProt P06241); experiment: as above
Hck = Hck (UniProt P08631); experiment: as above
Jak2 = Jak2 (UniProt O60674); experiment: as above
MERTK = MERTK (UniProt Q12866); experiment: as above
c-Abl (mouse) = experiment: as above
c-Src = experiment: as above
Grb2 SH2 = Grb2 SH2 (UniProt P62993); experiment: SH2 binding enrichment of the phosphorylated peptide, bacterial display (enrichment ratio); higher = better substrate or ligand; peptides without Tyr show the background
SHP2-C SH2 = experiment: as above
c-Src SH2 = experiment: as above
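For SH2 binding enrichment of the phosphorylated peptide, bacterial display in this document: peptide library displayed on the E. coli surface as eCPX fusions, selected cells deep-sequenced, score is each peptide's frequency after selection divided by its frequency in the input.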
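For phosphorylation enrichment, bacterial display in this document: 11-residue human phosphosite peptides and single-mutation variants displayed on the E. coli surface, counted by deep sequencing, each peptide's frequency after selection divided by its frequency in the unselected input library; frequency after pTyr selection over input frequency; kinase dosed for 20-30% of maximal phosphorylation in three min.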

Chain of EPHB2 (P29323 whole entry, looked up): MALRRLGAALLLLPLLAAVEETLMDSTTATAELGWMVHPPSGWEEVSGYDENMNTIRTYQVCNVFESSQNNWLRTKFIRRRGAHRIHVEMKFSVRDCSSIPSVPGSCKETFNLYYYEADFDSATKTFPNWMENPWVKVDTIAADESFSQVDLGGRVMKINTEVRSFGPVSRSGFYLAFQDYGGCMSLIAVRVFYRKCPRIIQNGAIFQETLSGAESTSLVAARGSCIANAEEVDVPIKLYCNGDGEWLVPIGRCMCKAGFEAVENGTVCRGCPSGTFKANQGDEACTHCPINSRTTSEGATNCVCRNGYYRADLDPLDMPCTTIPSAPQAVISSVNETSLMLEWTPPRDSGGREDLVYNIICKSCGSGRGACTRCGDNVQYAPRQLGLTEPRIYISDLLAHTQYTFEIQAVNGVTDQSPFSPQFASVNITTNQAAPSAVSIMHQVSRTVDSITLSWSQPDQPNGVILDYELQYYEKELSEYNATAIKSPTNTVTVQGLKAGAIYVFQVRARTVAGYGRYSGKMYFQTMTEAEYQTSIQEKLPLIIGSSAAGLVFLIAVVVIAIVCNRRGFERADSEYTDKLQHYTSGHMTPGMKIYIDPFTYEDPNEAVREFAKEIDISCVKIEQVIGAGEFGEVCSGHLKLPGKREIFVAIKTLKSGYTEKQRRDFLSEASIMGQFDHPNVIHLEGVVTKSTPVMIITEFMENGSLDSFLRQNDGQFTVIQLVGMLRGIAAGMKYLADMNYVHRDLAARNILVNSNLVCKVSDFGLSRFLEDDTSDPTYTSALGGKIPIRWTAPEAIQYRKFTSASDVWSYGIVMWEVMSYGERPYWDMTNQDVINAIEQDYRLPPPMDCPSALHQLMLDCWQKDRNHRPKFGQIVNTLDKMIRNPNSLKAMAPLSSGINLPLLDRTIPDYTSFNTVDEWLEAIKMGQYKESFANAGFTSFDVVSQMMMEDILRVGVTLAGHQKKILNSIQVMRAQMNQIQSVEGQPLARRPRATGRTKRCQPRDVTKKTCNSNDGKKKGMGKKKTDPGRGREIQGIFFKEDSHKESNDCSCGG
Chain of Jak2 (O60674 whole entry, looked up): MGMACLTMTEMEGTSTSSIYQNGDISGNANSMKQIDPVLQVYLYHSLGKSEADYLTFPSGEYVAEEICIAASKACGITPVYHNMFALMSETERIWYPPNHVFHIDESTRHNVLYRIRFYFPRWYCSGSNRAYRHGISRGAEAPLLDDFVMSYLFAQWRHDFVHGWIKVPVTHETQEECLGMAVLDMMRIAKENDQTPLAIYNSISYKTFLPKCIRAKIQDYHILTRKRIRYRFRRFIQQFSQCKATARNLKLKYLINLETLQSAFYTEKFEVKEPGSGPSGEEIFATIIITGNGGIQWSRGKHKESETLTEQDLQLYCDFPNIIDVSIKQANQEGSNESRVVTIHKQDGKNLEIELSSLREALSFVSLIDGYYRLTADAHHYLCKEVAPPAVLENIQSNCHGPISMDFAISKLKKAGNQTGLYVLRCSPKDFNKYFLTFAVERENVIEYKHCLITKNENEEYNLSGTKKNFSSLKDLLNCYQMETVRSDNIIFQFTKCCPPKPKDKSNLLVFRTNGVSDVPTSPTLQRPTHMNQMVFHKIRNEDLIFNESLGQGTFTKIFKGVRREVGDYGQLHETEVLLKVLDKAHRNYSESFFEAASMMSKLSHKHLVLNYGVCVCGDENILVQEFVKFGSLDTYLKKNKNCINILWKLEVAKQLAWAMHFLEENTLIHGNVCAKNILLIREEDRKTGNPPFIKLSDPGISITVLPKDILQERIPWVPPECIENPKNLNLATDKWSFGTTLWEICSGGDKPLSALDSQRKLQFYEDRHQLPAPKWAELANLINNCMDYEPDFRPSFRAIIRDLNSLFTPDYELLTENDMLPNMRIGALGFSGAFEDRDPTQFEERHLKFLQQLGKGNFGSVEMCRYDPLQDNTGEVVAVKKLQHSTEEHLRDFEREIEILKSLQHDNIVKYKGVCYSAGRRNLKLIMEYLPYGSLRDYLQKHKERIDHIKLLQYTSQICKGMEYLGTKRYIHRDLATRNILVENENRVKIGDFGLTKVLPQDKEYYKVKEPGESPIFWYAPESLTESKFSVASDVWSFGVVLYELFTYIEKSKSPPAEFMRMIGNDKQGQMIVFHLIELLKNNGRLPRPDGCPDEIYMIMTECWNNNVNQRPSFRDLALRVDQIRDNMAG
Chain of MERTK (Q12866 whole entry, looked up): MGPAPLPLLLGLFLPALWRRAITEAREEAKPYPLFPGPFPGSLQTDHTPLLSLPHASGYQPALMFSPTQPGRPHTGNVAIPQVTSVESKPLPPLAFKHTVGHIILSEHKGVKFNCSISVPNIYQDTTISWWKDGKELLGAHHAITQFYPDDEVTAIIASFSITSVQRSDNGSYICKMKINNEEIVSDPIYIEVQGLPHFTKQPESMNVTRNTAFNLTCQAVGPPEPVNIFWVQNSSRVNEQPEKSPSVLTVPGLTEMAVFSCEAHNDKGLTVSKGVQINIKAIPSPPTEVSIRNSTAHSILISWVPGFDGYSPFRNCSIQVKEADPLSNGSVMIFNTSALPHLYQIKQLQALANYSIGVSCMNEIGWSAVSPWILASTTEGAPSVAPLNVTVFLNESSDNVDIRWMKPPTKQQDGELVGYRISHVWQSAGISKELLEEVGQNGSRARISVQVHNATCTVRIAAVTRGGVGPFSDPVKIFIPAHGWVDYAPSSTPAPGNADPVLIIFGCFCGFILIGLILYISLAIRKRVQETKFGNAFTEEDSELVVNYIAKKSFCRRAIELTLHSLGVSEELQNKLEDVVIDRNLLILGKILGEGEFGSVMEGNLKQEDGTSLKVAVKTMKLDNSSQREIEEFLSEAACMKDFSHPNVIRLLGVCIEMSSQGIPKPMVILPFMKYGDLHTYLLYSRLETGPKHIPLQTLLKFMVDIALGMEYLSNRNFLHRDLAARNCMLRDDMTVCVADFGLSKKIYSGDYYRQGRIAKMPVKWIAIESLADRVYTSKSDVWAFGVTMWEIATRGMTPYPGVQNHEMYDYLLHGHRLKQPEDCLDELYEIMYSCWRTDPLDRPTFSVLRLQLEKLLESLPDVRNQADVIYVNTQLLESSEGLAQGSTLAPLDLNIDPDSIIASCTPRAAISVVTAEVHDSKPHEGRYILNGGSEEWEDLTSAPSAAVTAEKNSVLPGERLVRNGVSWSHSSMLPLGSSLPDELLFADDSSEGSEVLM
Chain of Grb2 SH2 (P62993 whole entry, looked up): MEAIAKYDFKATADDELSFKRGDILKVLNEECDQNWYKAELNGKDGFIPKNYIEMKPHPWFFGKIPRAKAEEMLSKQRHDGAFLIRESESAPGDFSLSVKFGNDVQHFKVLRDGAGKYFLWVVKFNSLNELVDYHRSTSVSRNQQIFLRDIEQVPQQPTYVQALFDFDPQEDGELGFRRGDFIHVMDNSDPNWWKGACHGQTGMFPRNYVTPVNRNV
Chain of FGFR3 (P22607 whole entry, looked up): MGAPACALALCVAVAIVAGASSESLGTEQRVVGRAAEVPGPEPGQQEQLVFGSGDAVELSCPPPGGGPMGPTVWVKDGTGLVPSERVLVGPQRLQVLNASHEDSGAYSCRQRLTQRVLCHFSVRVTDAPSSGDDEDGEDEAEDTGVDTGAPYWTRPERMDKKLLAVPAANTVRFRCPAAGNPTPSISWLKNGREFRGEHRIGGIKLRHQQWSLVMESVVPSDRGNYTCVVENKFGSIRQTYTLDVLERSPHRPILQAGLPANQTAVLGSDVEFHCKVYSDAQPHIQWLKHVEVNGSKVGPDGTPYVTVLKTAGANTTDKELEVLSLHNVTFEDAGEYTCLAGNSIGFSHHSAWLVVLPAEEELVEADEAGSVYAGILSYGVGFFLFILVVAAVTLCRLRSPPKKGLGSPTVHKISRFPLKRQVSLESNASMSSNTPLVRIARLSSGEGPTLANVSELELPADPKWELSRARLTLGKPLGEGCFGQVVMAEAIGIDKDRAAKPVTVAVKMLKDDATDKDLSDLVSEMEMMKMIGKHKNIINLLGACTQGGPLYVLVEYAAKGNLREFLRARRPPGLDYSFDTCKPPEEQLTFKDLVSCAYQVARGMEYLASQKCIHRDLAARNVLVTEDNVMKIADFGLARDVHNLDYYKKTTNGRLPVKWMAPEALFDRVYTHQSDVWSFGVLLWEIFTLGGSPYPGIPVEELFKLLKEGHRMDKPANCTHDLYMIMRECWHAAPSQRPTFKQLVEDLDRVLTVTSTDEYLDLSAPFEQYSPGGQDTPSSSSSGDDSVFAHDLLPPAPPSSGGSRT
Chain of FGFR1 (P11362 whole entry, looked up): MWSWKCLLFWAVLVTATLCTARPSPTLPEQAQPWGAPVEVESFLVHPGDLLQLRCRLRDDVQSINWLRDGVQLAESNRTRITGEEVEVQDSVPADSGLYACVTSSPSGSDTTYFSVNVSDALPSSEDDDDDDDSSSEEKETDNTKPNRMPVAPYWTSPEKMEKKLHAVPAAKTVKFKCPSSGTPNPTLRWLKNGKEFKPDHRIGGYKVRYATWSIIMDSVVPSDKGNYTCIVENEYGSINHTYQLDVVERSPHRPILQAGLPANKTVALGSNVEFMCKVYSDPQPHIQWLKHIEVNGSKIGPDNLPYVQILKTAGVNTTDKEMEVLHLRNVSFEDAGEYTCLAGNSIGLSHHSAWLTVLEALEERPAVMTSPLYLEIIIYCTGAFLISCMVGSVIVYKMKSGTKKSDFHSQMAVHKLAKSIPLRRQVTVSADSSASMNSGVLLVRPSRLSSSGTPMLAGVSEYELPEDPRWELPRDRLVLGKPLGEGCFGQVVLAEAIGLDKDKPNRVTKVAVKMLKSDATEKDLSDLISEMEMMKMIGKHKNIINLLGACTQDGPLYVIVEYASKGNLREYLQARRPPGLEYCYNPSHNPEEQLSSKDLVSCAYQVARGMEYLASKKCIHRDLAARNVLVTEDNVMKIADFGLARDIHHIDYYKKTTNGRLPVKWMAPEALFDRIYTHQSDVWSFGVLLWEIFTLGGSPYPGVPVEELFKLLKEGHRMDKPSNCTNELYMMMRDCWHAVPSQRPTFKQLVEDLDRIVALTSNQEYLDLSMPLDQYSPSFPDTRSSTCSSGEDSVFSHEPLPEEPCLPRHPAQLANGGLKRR

Sequence | phosphorylation enrichment (AncSZ) | phosphorylation enrichment (EPHB1) | phosphorylation enrichment (EPHB2) | phosphorylation enrichment (FGFR1) | phosphorylation enrichment (FGFR3) | phosphorylation enrichment (Fer (mouse)) | phosphorylation enrichment (Fes) | phosphorylation enrichment (Fyn) | phosphorylation enrichment (Hck) | phosphorylation enrichment (Jak2) | phosphorylation enrichment (MERTK) | phosphorylation enrichment (c-Abl (mouse)) | phosphorylation enrichment (c-Src) | SH2 binding enrichment (Grb2 SH2) | SH2 binding enrichment (SHP2-C SH2) | SH2 binding enrichment (c-Src SH2)
KFRREYILSLE [GPC3_Y299_W296R_YF] | 0.786 | 0.551 | 0.586 | 0.518 | 0.466 | 0.442 | 0.772 | 0.518 | 0.474 | 0.61 | 0.455 | 0.601 | 0.5 | 0.86 | 0.708 | 0.594
KGKLIYLLGDS [NXPE1_Y350] | 0.803 | 0.391 | 0.42 | 0.434 | 0.521 | 0.471 | 0.922 | 0.551 | 0.478 | 0.639 | 0.343 | 0.529 | 0.661 | 1.2 | 1.24 | 1.17
KHMADYPDYKY [SOX11_Y113] | 0.642 | 0.458 | 0.471 | 0.453 | 0.632 | 0.42 | 0.616 | 0.407 | 0.401 | 0.442 | 0.322 | 0.404 | 0.4 | 0.844 | 0.847 | 0.519
KIEGVYARDET [RPL35A_Y34] | 0.784 | 0.515 | 0.612 | 0.437 | 0.55 | 0.387 | 0.878 | 0.555 | 0.586 | 0.681 | 0.386 | 0.633 | 0.56 | 0.671 | 0.705 | 0.542
KILAKYLLETS [NAMPT_Y175] | 0.66 | 0.431 | 0.412 | 0.353 | 0.421 | 0.411 | 0.664 | 0.35 | 0.368 | 0.645 | 0.385 | 0.571 | 0.395 | 0.766 | 0.614 | 0.513
KILPEYLSNWT [AIFM1_Y347] | 0.995 | 0.428 | 0.513 | 0.543 | 0.673 | 0.424 | 0.915 | 0.463 | 0.481 | 0.983 | 0.509 | 0.677 | 0.503 | 1.03 | 0.873 | 0.691
KKHIPYKEHKS [CSNK1G1_Y205_R206K] | 1.53 | 1.15 | 0.951 | 0.942 | 2.2 | 1.2 | 2.1 | 0.597 | 0.842 | 3.96 | 0.987 | 3.19 | 1.03 | 1.89 | 2.23 | 1.82
KKKKQYKDKYL [CASK_Y708] | 0.614 | 0.53 | 0.393 | 0.506 | 0.471 | 0.587 | 0.534 | 0.454 | 0.548 | 0.475 | 0.631 | 0.837 | 0.728 | 0.872 | 0.244 | 0.275
KKMKRYHVGKV [HARS2_Y151] | 0.466 | 0.492 | 0.313 | 0.298 | 0.486 | 0.293 | 0.514 | 0.349 | 0.341 | 0.554 | 0.43 | 0.482 | 0.45 | 1.14 | 1.36 | 1.12
KLFFHYNPKLC [INSR_Y457] | 1.25 | 0.631 | 0.568 | 0.534 | 0.777 | 0.566 | 1.41 | 0.384 | 0.562 | 1.47 | 0.383 | 0.855 | 0.428 | 1.12 | 1.18 | 0.712
KLGDVYVNVAF [PGK1_Y161_D164V] | 1.13 | 0.801 | 0.632 | 1.01 | 1.01 | 0.661 | 1.08 | 0.645 | 0.706 | 0.965 | 0.471 | 0.727 | 0.584 | 1.16 | 0.845 | 0.636
KLIMEYLPFGS [JAK2_Y931_YF] | 0.868 | 0.49 | 0.571 | 0.468 | 0.595 | 0.456 | 1.09 | 0.401 | 0.424 | 0.965 | 0.372 | 0.734 | 0.558 | 1 | 0.788 | 0.714
KLPFLYDDPFS [GPX2_Y127_P126L_YF] | 1.07 | 3.99 | 4.62 | 0.589 | 0.62 | 1.6 | 0.995 | 0.672 | 1.5 | 1.03 | 2.66 | 0.736 | 0.641 | 0.846 | 0.841 | 1.23
KLPFPYDDPFS [GPX2_Y127_YF] | 1.05 | 0.587 | 0.773 | 0.63 | 0.755 | 0.772 | 1.11 | 0.545 | 0.663 | 0.9 | 0.525 | 1.16 | 0.831 | 1.12 | 0.761 | 3.9
KNKNRSKNILP [PTPN11_Y279_Y279S] | 0.732 | 0.686 | 0.568 | 0.531 | 0.627 | 0.486 | 0.749 | 0.621 | 0.561 | 0.632 | 0.561 | 0.771 | 0.564 | 0.777 | 0.39 | 0.374
KNKNRYKNILP [PTPN11_Y279] | 0.78 | 0.601 | 0.665 | 0.598 | 0.889 | 0.703 | 1.03 | 0.644 | 0.851 | 0.984 | 0.799 | 0.877 | 0.941 | 1.05 | 0.888 | 0.637
KPEKTYGLRKE [CEP43_Y267] | 0.595 | 0.433 | 0.409 | 0.344 | 0.614 | 0.395 | 0.766 | 0.46 | 0.503 | 0.683 | 0.441 | 0.782 | 0.43 | 1.1 | 0.999 | 0.823

Sequence | phosphorylation enrichment (AncSZ) | phosphorylation enrichment (EPHB1) | phosphorylation enrichment (EPHB2) | phosphorylation enrichment (FGFR1) | phosphorylation enrichment (FGFR3) | phosphorylation enrichment (Fer (mouse)) | phosphorylation enrichment (Fes) | phosphorylation enrichment (Fyn) | phosphorylation enrichment (Hck) | phosphorylation enrichment (Jak2) | phosphorylation enrichment (MERTK) | phosphorylation enrichment (c-Abl (mouse)) | phosphorylation enrichment (c-Src) | SH2 binding enrichment (Grb2 SH2) | SH2 binding enrichment (SHP2-C SH2) | SH2 binding enrichment (c-Src SH2)
KPNMNYDKLSW [FLI1_Y332_R337W] | 0.751 | 0.644 | 0.893 | 0.428 | 0.59 | 0.555 | 0.741 | 0.486 | 0.661 | 0.746 | 0.481 | 0.41 | 0.446 | 0.967 | 1.5 | 10.2
KPVEEYANCHL [TF_Y593] | 0.96 | 0.623 | 0.549 | 0.61 | 0.65 | 0.481 | 1.11 | 0.472 | 0.613 | 0.915 | 0.544 | 0.755 | 0.547 | 1.1 | 0.758 | 1.25
KQLFAYKMLMA [TMC2_Y209_YF] | 0.858 | 0.562 | 0.594 | 0.548 | 0.677 | 0.445 | 0.926 | 0.475 | 0.566 | 0.773 | 0.386 | 0.711 | 0.439 | 1.25 | 1.07 | 1.01
KRLAVYQAGAR [APOE_Y180] | 0.495 | 0.316 | 0.399 | 0.403 | 0.365 | 0.333 | 0.504 | 0.405 | 0.335 | 0.464 | 0.346 | 0.398 | 0.378 | 1.1 | 1.05 | 0.879
KRLWDYGMSSS [F8_Y1728_E1723K] | 0.592 | 0.429 | 0.461 | 0.399 | 0.511 | 0.339 | 0.706 | 0.341 | 0.337 | 0.666 | 0.359 | 0.536 | 0.394 | 0.971 | 0.57 | 0.457
KSDVMYTDWKK [ORM1_Y175_V174M] | 0.738 | 0.488 | 0.454 | 0.416 | 0.682 | 0.463 | 0.842 | 0.485 | 2.03 | 0.764 | 0.562 | 0.689 | 0.616 | 0.771 | 0.626 | 0.47
KSEKVYTRHGV [FLOT1_Y56] | 0.502 | 0.354 | 0.339 | 0.439 | 0.341 | 0.417 | 0.527 | 0.254 | 0.346 | 0.444 | 0.427 | 0.401 | 0.34 | 0.866 | 0.824 | 0.579
KSPDSYQKILL [ATM_Y1415] | 0.55 | 0.397 | 0.437 | 0.488 | 0.451 | 0.393 | 0.801 | 0.372 | 0.395 | 0.712 | 0.437 | 0.569 | 0.429 | 0.805 | 0.631 | 1.24
KSSDVYVSFDC [SORL1_Y136_Y141C_YF] | 1.44 | 1.41 | 0.802 | 1.92 | 1.61 | 0.733 | 1.18 | 5.22 | 2.16 | 0.889 | 0.803 | 0.786 | 3.34 | 1.15 | 0.782 | 0.79
KSVSQYLEMDK [CAGE1_Y438] | 0.748 | 0.422 | 0.406 | 0.46 | 0.537 | 0.424 | 0.803 | 0.414 | 0.391 | 0.907 | 0.38 | 1.05 | 0.406 | 0.873 | 0.528 | 1.9
KTGNIYRTEFG [MRPL3_Y265_M261T_YF] | 0.585 | 0.422 | 0.377 | 0.517 | 0.491 | 0.35 | 0.542 | 0.437 | 0.435 | 0.468 | 0.413 | 0.457 | 0.349 | 1.15 | 0.871 | 0.547
KTVQDYLEKFF [MMP8_Y36_YF] | 1.14 | 0.504 | 0.602 | 0.643 | 0.692 | 0.485 | 1.28 | 0.519 | 0.502 | 0.986 | 0.514 | 0.874 | 0.446 | 0.953 | 0.719 | 0.64
KVDKEYEVGVR [GHR_Y226_R229G] | 0.752 | 0.434 | 0.48 | 0.472 | 0.493 | 0.398 | 0.796 | 0.401 | 0.452 | 0.553 | 0.41 | 0.658 | 0.414 | 0.851 | 0.764 | 0.534
KVGNEYITKGQ [MYH7_Y410_V411I] | 0.593 | 0.358 | 0.414 | 0.444 | 0.443 | 0.315 | 0.682 | 0.376 | 0.399 | 0.561 | 0.356 | 0.564 | 0.403 | 0.896 | 0.495 | 0.43
KVGNEYVTKGQ [MYH7_Y410] | 0.492 | 0.303 | 0.495 | 0.393 | 0.422 | 0.269 | 0.578 | 0.3 | 0.334 | 0.471 | 0.332 | 0.469 | 0.339 | 0.89 | 0.676 | 0.471
KVKGEYDMTVP [AHNAK_Y964] | 0.669 | 0.491 | 0.36 | 0.469 | 0.607 | 0.637 | 0.744 | 0.434 | 0.443 | 0.543 | 0.463 | 0.372 | 0.414 | 0.756 | 0.692 | 0.499
